What was measured:
[1] = test system: patients with platinum-refractory disease; details: second-line; cited from earlier work
[2] = test system: patients with ES-SCLC; experiment: CASPIAN phase 3 trial: tumor response per RECIST v1.1 (objective response, duration of response); format: in vivo, human; details: for Odds ratio (95% CI) for ORR versus EP: logistic regression adjusted for platinum agent
Experimental: (§1) Eligible patients included adults with histologically or cytologically documented ES-SCLC and were treatment naïve. […] Patients with brain metastases were eligible provided they were asymptomatic or treated and stable off steroids and anticonvulsants for at least 1 month prior to study entry.
Randomization was stratified according to planned platinum agent. […]
The primary endpoint was OS (time from randomization to death from any cause). […] PFS and ORR were assessed according to RECIST v1.1.

[3] = test system: patients with ES-SCLC; experiment: CASPIAN phase 3 trial: overall survival and progression-free survival, intention-to-treat population; format: in vivo, human; details: ITT
Experimental: as §1
Randomization was stratified according to planned platinum agent.
Survival was assessed every 2 months following treatment discontinuation.
The primary endpoint was OS (time from randomization to death from any cause). Secondary endpoints included progression-free survival (PFS; time from randomization to the date of objective disease progression or death from any cause in the absence of progression), objective response rate (ORR), OS at 18 and 24 months, PFS at 6 and 12 months, and safety. PFS and ORR were assessed according to RECIST v1.1.

[4] = test system: patients with ES-SCLC; experiment: CASPIAN phase 3 trial: treatment-related adverse events (safety population)
Experimental: (§2) Patients were randomized in a 1:1:1 ratio to receive durvalumab 1500 mg plus EP, durvalumab 1500 mg plus tremelimumab 75 mg plus EP, or EP (FIG. 1). Across all three study arms, chemotherapy consisted of etoposide 80-100 mg/m^2 (administered on days 1 to 3 of each cycle), with either carboplatin area under the curve 5-6 mg/mL/min or cisplatin 75-80 mg/m^2 (administered on day 1 of each cycle). Randomization was stratified according to planned platinum agent. Patients in the immunotherapy arms received up to 4 cycles of EP plus durvalumab every 3 weeks (q3w) followed by maintenance durvalumab 1500 mg every 4 weeks (q4w). Patients in the EP arm could receive an additional 2 cycles of EP (up to 6 cycles total) and prophylactic cranial irradiation (PCI). Patients continued treatment until Response Evaluation Criteria in Solid Tumor version 1.1 (RECIST v1.1)-defined disease progression, unacceptable toxicity, or other discontinuation criteria were met. Continuation of study treatment following disease progression was permitted if there was evidence of clinical benefit (FIG. 1). In-study crossover from the EP to the immunotherapy plus EP arms was not allowed.
(§3) Tumor imaging was performed every 6 weeks for the first 12 weeks, and every 8 weeks thereafter, until confirmed objective disease progression. Survival was assessed every 2 months following treatment discontinuation.
(§4) All patients who received at least one dose of study treatment were included in safety analyses.

[5] = test system: patients with ES-SCLC; details: in vivo
Experimental: as §2, §3, §4

[6] = final analysis, Kaplan-Meier, listed as D+EP

CC[C@@]1(O)C(=O)OCc2c1cc1n(c2=O)Cc2cc3c(CN(C)C)c(O)ccc3nc2-1 [topotecan]
one-year survival rate [1]: 9% | response rates [1]: 5%

Durvalumab + EP
Best objective response: Complete response ([2]; final analysis): 7 (3) n (%) | Best objective response: Not evaluable ([2]; final analysis): 3 (1) n (%) | Best objective response: Partial response ([2]; final analysis): 175 (65) n (%) | Best objective response: Progressive disease ([2]; final analysis): 32 (12) n (%) | Best objective response: Stable disease for at least 6 weeks ([2]; final analysis): 20 (7) n (%) | Best objective response: Unconfirmed response ([2]; final analysis): 31 (12) n (%) | Best reduction from baseline in target lesion size, Mean (SD) ([2]; final analysis): −57.0 (24.59) % | Best reduction from baseline in target lesion size, Median (IQR) ([2]; final analysis): −60.4 (−72.9, −44.3) % | Odds ratio vs EP (95% CI), confirmed objective response ([2]; final analysis): 1.53 (1.08-2.18) | Odds ratio vs EP (95% CI), unconfirmed objective response ([2]; final analysis): 1.61 (1.09-2.40) | Remaining in response at 6 months (95% CI) ([2]; final analysis, Kaplan-Meier): 39.3 (32.2-46.3) % | Remaining in response at 12 months (95% CI) ([2]; final analysis, Kaplan-Meier): 23.2 (17.3-29.7) % | Remaining in response at 24 months (95% CI) ([2]; final analysis, Kaplan-Meier): 13.5 (8.7-19.3) % | Remaining in response at 12 months (95% CI) [2, 6]: 23.2% | Remaining in response at 24 months (95% CI) [2, 6]: 13.5% | Median (95% CI) duration of response ([2]; final analysis, confirmed responders, Kaplan-Meier): 5.1 (4.9-5.3) months | Best reduction from baseline in target lesion size, Median (IQR) ([2]; final analysis, listed as D+EP): −60.4% | Odds ratio vs EP (95% CI), confirmed objective response ([2]; final analysis, listed as D+EP): 1.53 | confirmed objective response ([2]; final analysis, post hoc): 68% | Best objective response: Not evaluable ([2]; interim analysis): 3 (1.1) n (%) | Best objective response: Progressive disease ([2]; interim analysis): 32 (11.9) n (%) | Best objective response: Stable disease ≥6 weeks ([2]; interim analysis): 20 (7.5) n (%) | Remaining in response at 6 months ([2]; interim analysis): 39.3% | Remaining in response at 12 months ([2]; interim analysis): 22.7% | confirmed ORR ([2]; interim analysis): 67.9% | confirmed complete response ([2]; interim analysis): 2.2% | ORR (confirmed) ([2]; interim analysis, RECIST v1.1): 182 (67.9) n (%) | Best objective response: Complete response ([2]; interim analysis, confirmed): 6 (2.2) n (%) | Best objective response: Partial response ([2]; interim analysis, confirmed): 176 (65.7) n (%) | Median DoR (95% CI) ([2]; interim analysis, confirmed responders): 5.1 (4.9-5.3) months | Median DoR (95% CI) ([2]; interim analysis, confirmed responders, listed as durvalumab plus EP): 5.1 months | Odds ratio (95% CI) for ORR versus EP ([2]; interim analysis): 1.56 (1.095-2.218) | Odds ratio (95% CI) for ORR versus EP ([2]; interim analysis, listed as durvalumab plus EP): 1.56 | unconfirmed and confirmed objective response rates, amount higher versus EP ([2]; updated analysis): approximately 10% | patients who had died ([3]; final analysis data cutoff): 78% | patients who had disease progression or died ([3]; final data cutoff): 87% | 12-month PFS rate ([3]; final/updated analysis): 17.9% | 24-month PFS rate ([3]; final/updated analysis): 11.0% | HR for PFS versus EP ([3]; final/updated analysis): 0.80 | Median OS ([3]; final/updated analysis): 12.9 months | Median PFS ([3]; final/updated analysis): 5.1 months | HR for OS versus EP ([3]; final/updated analysis, Cox model stratified by platinum agent): 0.75 | 24-month OS rate ([3]; final/updated analysis, Kaplan-Meier): 22.2% | Alopecia, treatment-related ([4]; Any grade): 75 (28) n (%) | Anaemia, treatment-related ([4]; Any grade): 85 (32) n (%) | Any treatment-related event ([4]; Any grade): 237 (89) n (%) | Any treatment-related event leading to discontinuation ([4]; Any grade): 16 (6) n (%) | Any treatment-related serious event ([4]; Any grade): 35 (13) n (%) | Asthenia, treatment-related ([4]; Any grade): 27 (10) n (%) | Constipation, treatment-related ([4]; Any grade): 23 (9) n (%) | Decreased appetite, treatment-related ([4]; Any grade): 33 (12) n (%) | Diarrhoea, treatment-related ([4]; Any grade): 17 (6) n (%) | Fatigue, treatment-related ([4]; Any grade): 30 (11) n (%) | Febrile neutropenia, treatment-related ([4]; Any grade): 15 (6) n (%) | Hyperthyroidism, treatment-related ([4]; Any grade): 22 (8) n (%) | Hypothyroidism, treatment-related ([4]; Any grade): 23 (9) n (%) | Leucopenia, treatment-related ([4]; Any grade): 36 (14) n (%) | Lipase increased, treatment-related ([4]; Any grade): 10 (4) n (%) | Nausea, treatment-related ([4]; Any grade): 74 (28) n (%) | Neutropenia, treatment-related ([4]; Any grade): 104 (39) n (%) | Neutrophil count decreased, treatment-related ([4]; Any grade): 24 (9) n (%) | Paraesthesia, treatment-related ([4]; Any grade): 14 (5) n (%) | Platelet count decreased, treatment-related ([4]; Any grade): 14 (5) n (%) | Pruritus, treatment-related ([4]; Any grade): 11 (4) n (%) | Rash, treatment-related ([4]; Any grade): 10 (4) n (%) | Thrombocytopenia, treatment-related ([4]; Any grade): 37 (14) n (%) | Vomiting, treatment-related ([4]; Any grade): 32 (12) n (%) | White blood cell count decreased, treatment-related ([4]; Any grade): 12 (5) n (%) | Alopecia, treatment-related ([4]; Grade 3 or 4): 3 (1) n (%) | Anaemia, treatment-related ([4]; Grade 3 or 4): 21 (8) n (%) | Any treatment-related event ([4]; Grade 3 or 4): 121 (46) n (%) | Any treatment-related event leading to discontinuation ([4]; Grade 3 or 4): 3 (1) n (%) | Any treatment-related serious event ([4]; Grade 3 or 4): 25 (9) n (%) | Asthenia, treatment-related ([4]; Grade 3 or 4): 2 (1) n (%) | Constipation, treatment-related ([4]; Grade 3 or 4): 0 n (%) | Decreased appetite, treatment-related ([4]; Grade 3 or 4): 1 (<1) n (%) | Diarrhoea, treatment-related ([4]; Grade 3 or 4): 2 (1) n (%) | Fatigue, treatment-related ([4]; Grade 3 or 4): 2 (1) n (%) | Febrile neutropenia, treatment-related ([4]; Grade 3 or 4): 13 (5) n (%) | Hyperthyroidism, treatment-related ([4]; Grade 3 or 4): 0 n (%) | Hypothyroidism, treatment-related ([4]; Grade 3 or 4): 0 n (%) | Leucopenia, treatment-related ([4]; Grade 3 or 4): 15 (6) n (%) | Lipase increased, treatment-related ([4]; Grade 3 or 4): 8 (3) n (%) | Nausea, treatment-related ([4]; Grade 3 or 4): 0 n (%) | Neutropenia, treatment-related ([4]; Grade 3 or 4): 61 (23) n (%) | Neutrophil count decreased, treatment-related ([4]; Grade 3 or 4): 16 (6) n (%) | Paraesthesia, treatment-related ([4]; Grade 3 or 4): 0 n (%) | Platelet count decreased, treatment-related ([4]; Grade 3 or 4): 4 (2) n (%) | Pruritus, treatment-related ([4]; Grade 3 or 4): 0 n (%) | Rash, treatment-related ([4]; Grade 3 or 4): 0 n (%) | Thrombocytopenia, treatment-related ([4]; Grade 3 or 4): 14 (5) n (%) | Vomiting, treatment-related ([4]; Grade 3 or 4): 0 n (%) | White blood cell count decreased, treatment-related ([4]; Grade 3 or 4): 4 (2) n (%) | Any treatment-related event leading to death [5]: 6 (2) n (%)

From patent publication US12012453B2, “Methods for treating late-stage small cell lung cancer by administering a human anti-PD-L1 antibody, an etoposide and a platinum-based therapeutic” (ASTRAZENECA AB, priority 2019, dated 2024)
